Source: US20190083615A1 (Merck Sharp & Dohme, published 2019)
Where “and” joins values, the source holds several entries; their conditions need not be identical. Identical values can stand only once.

Columns and labels:
[1] = molecular target: T1, Human LAG3-His: [VEGF leader]-LAG3_H-[His9G] (human, UniProt P18627 23-450); test: SPR (Biacore T200), antibody captured on goat anti-mouse Fc, human LAG3-His as analyte, 1:1 Langmuir fit
T1 construct: also called human LAG3-His tagged recombinant protein; hLAG3-His
T1 sequence: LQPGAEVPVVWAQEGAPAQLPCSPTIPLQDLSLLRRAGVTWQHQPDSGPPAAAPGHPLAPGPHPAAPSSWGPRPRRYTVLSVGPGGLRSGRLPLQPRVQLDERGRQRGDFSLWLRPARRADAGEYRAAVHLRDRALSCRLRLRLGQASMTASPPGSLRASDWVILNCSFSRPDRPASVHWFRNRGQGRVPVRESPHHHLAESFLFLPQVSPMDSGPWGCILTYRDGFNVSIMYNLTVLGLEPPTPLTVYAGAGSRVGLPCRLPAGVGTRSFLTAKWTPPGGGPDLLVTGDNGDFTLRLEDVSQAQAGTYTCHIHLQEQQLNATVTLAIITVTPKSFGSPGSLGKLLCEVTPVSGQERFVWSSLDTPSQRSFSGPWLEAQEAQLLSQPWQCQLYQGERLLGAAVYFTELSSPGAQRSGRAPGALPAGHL
Description: Mouse anti-human LAG3 clones listed above were injected over the immobilized goat anti-mouse surfaces at 1 ug/mL for a capture level of 40 RU. HBS-EP+ buffer (BR-1006-69) was used as the running buffer with a flow rate of 30 μL/min.
Varying concentrations of human LAG3-His protein ranging from 0.15 nM to 18.8 nM, at a flow rate of 40 μL/min were injected over the antibody surfaces.
Background subtraction binding sensorgrams were used for analyzing the rate constant of association (kₐ) and dissociation (kd), and the equilibrium dissociation constant KD. The resulting data sets were fitted with a 1:1 Langmuir Binding Model using the Biacore T200 evaluation software (version 2.0).

[2] = molecular target: T2, human LAG3 (Lymphocyte Activation Gene-3) expressed on cells (human, UniProt P18627 23-525); test: cell-based or functional assay
T2 sequence: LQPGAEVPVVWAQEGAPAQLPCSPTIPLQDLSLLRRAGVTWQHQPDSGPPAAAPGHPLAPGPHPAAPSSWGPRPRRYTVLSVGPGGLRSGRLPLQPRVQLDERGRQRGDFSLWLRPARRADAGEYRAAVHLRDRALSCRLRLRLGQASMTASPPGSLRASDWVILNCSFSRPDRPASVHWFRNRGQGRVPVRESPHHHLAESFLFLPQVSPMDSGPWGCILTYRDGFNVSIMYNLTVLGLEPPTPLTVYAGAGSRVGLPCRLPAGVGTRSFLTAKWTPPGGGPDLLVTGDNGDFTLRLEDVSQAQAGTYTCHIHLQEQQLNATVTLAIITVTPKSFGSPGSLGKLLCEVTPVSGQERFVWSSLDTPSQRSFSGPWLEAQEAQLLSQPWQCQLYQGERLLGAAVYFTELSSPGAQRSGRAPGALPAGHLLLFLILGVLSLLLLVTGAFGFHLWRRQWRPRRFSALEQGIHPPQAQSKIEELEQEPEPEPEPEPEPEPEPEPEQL

[3] = molecular target: T3, human LAG3-huFc recombinant protein (human, UniProt P18627 23-450, limits assumed, biotinylated in the runs with humanized and chimeric antibodies (Example 11)); test: flow cytometry, blockade of human LAG3-huFc (2 ug/ml) binding to MHC class II on Daudi cells
T3 construct: also called human LAG3-Fc; huLAG3-huFc; not shown: human Fc
T3 sequence: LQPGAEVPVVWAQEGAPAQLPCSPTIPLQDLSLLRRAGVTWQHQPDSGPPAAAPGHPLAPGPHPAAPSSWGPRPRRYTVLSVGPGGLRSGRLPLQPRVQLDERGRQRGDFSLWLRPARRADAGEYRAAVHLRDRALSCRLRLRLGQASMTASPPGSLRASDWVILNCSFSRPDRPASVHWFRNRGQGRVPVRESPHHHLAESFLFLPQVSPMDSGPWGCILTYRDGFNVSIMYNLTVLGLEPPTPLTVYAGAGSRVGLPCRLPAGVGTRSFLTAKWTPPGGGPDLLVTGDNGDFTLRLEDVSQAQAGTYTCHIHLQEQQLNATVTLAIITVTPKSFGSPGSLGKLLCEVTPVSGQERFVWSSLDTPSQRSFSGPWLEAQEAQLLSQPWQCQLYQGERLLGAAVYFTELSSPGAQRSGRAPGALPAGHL
Description: (§1) Mouse anti-human LAG3 clones were tested for their ability to block hLAG3 interaction with human MHC Class II. Daudi cells (ATCC #CCL-213) were used as a cell line positive for human MHC class II expression. Daudi cells were blocked with 10 ug/ml of goat IgG in HBSS and 2% BCS on ice for 30 minutes and 0.5×10⁶ cells/sample were aliquoted into a 96-well V-bottom plate and blocking buffer removed. […] Cells were pelleted by centrifugation at 1200 rpm and washed twice with HBSS/2% BCS. […] Cells were washed twice as described above, resuspended in HBSS/2% BCS and read on the FACSCalibur.

[4] = molecular target: T3, human LAG3-huFc recombinant protein; test: flow cytometry, blockade of human LAG3-huFc binding to MHC class II on Daudi cells
Description: as §1

[5] = molecular target: T3, human LAG3-huFc recombinant protein; test: flow cytometry, blockade of biotinylated human LAG3-huFc binding to MHC class II on Daudi cells, streptavidin-PE
Description: as §1, with “anti-human LAG3 and humanized anti-LAG3 clones were” for “anti-human LAG3 clones were”

[6] = molecular target: T2, human LAG3 (Lymphocyte Activation …); test: cell based KinExA, BaF/3 cells transfected with human LAG3 (n=2)
Description: The affinities of the LAG3 antibodies for LAG3 were determined using a cell based Kinetic Exclusion Assay (KinExA). Cell based KinExA can be used to measure the affinity of a molecule for a binding partner on a cell surface (Rathanaswami et al. Analylitical Biochemistry 373(1): 52-60 (2008); Xie et al. J. Immunol. Methods 304 (1-2): 1-14 (2005)). In this case, BaF/3 cells were stably transfected with human and cynomolgus monkey LAG3 proteins. Transfected cells or the parental BaF/3 control cell line were grown to a density of 1.7×10⁶ to 3.2×10⁶ cells per ml at 37° C., 120 RPM, 5% CO₂, in 1X RPMI 1640 media with 10% FBS, 10 ng/ml IL-3, 5 μg/ml puromycin. Cells were concentrated, mixed with 15 pM or 150 pM antibody in cell culture media and incubated 24 to 48 hours at room temperature while rotating at 20 to 30 RPM. Cells were present at a top concentration of 2×10⁷ cells per ml (parental BaF/3 or cynomolgus LAG3 transfectants) or 1×10⁷ cells per ml (human LAG3 transfectants) and diluted in a 2-fold, 18 member series. The cells were pelleted and free antibody in the supernatant was measured using a KinExA 3200 instrument (Sapidyne, Id., USA). […] Antibody on the beads was labeled with 1.5 μg/ml Alexa Fluor® 647 conjugated goat anti-human (Fab′)₂ (Jackson ImmunoResearch Laboratories), washed and the fluorescent signal was read all using the KinExA™ 3200. The data from the 15 pM and 150 pM concentrations of each antibody were fit simultaneously using KinExA™ Pro n-Curve Analysis software version 4.0.11 (Sapidyne).

B1: mouse anti-human LAG3 antibody LB148.4A10.1H1 (antibody, mouse IgG2a, V domains shown)
VH: EVQLLQSGAELVRSGASVKLSCTASGFNIEDYYMHWMKQRPEQGLEWIGWIDPVNGDTEYAPKFQGKATMTADTSSNTAYLHLNSLTSEDTAVYYCNFYDGYLFAFWGQGTLVTVSA
VL: DIVLTQAAPSVPVTPGESVSISCRSSKSLLHSDGNTYLYWLLQRPGQSPQLLIYRMSNLASGVPDRFSGSGSGTVFTLRISRLEAEDVGIYYCMQHLEYPFTFGGGTKLEIK
notes: also called Lag3 clone 4A10
Kd [1]: 0.0903 nM | koff [1]: 0.000113 s⁻¹ | kon [1]: 1.25e+06 M⁻¹ s⁻¹ | EC50 for IL-2 rescue, hLAG3-3A9 T cell system [2]: 2.83 nM and 2.96 nM | IC50 [3]: 1.9 nM | IC50 [4]: 1.9 nM

B2: mouse anti-human LAG3 antibody LB145.22D2.E1.1D1 (antibody, mouse IgG2a, V domains shown)
VH: EVLLLQSGPELVKPGTSVKIPCKASGYTFTDYNVDWVKQRHGKGLEWIGDINPNNGGTIYSQKFKGKATLTVDKSSSTAFMELRSLTSEDTAVYFCARNYRWFGAMDHWGQGTSVTVSS
VL: DIVLTQSPASLAVSPGQRATISCKASQSLDYEGDSDMNWYQQKPGQPPRLLISGASNLESGIPARFSGSGSGTDFTVNIHPVEEEDAATYYCQQSTEDPRTFGGGTKLEIK
notes: also called Lag3 clone 22D2; LB145.22D2.E1.D1
Kd [1]: 0.00277 nM | koff [1]: 3.84e-05 s⁻¹ | kon [1]: 1.39e+07 M⁻¹ s⁻¹ | EC50 for IL-2 rescue, hLAG3-3A9 T cell system [2]: 1.06 nM and 1.65 nM | IC50 [3]: 2.1 nM | IC50 [4]: 2.1 nM

B3: 22D2 chimera: chimeric antibody [LAG3_H] mAb (LB145.22D2.E1.D1 (VH0/VL0) Geneart) IgG4 S228P/kappa (PX) (antibody, V domains shown)
VH: EVLLLQSGPELVKPGTSVKIPCKASGYTFTDYNVDWVKQRHGKGLEWIGDINPNNGGTIYSQKFKGKATLTVDKSSSTAFMELRSLTSEDTAVYFCARNYRWFGAMDHWGQGTSVTVSS
VL: DIVLTQSPASLAVSPGQRATISCKASQSLDYEGDSDMNWYQQKPGQPPRLLISGASNLESGIPARFSGSGSGTDFTVNIHPVEEEDAATYYCQQSTEDPRTFGGGTKLEIK
notes: It is described as the parental LB145.22D2.E1.D1 VH0/VL0 on human IgG4 with the hinge-stabilizing S228P mutation and kappa; also called Chimeric 22D2; chimeric 22D2
IC50 [5]: 2.5 nM | Kd [6]: 0.003 nM
